Laboratory results taken from paper PMC7494861, “Characterization of the nucleotide-binding domain NsrF from the BceAB-type ABC-transporter NsrFP from the human pathogen Streptococcus agalactiae” (Scientific Reports, 2020).

Tests used:
Experiment in all cases: purified protein
Type in all cases: biochemical, Streptococcus agalactiae
Conditions in all cases: 100 mM HEPES pH 7, 10 mM Mg2+, 0 mM NaCl, 30 °C, cooperative
[1] = tested on: Nc1ccn([C@@H]2O[C@H](COP(=O)(O)OP(=O)(O)OP(=O)(O)O)[C@@H](O)[C@H]2O)c(=O)n1
Source text: (§1) malachite green phosphate release, Hill fit on SaNsrF (SaNsrFWT)

[2] = tested on: Nc1nc2c(ncn2[C@@H]2O[C@H](COP(=O)(O)OP(=O)(O)OP(=O)(O)O)[C@@H](O)[C@H]2O)c(=O)[nH]1
Source text: as §1

[3] = tested on: O=c1ccn([C@@H]2O[C@H](COP(=O)(O)OP(=O)(O)OP(=O)(O)O)[C@@H](O)[C@H]2O)c(=O)[nH]1
Source text: as §1

For “SaNsrF (SaNsrFWT) (Streptococcus agalactiae 2603V/R)”, the K0.5 [1] was 1.23 ± 0.20 mM, the Vmax [1] was 339.0 ± 30.4 nmol/min/mg and the K0.5 [2] was 0.69 ± 0.07 mM. For the same substance, the Vmax [2] was 221.6 ± 11.1 nmol/min/mg, the K0.5 [3] was 0.90 ± 0.13 mM and the Vmax [3] was 314.8 ± 23.4 nmol/min/mg.
